Data taken from patent US8440804B2, “Polypeptides having modulatory effects on cells” (Ecole Normale Superieure de Lyon, priority 2006, dated 2013).
Changes are numbered by the printed parent chain.

What was measured:
[1] = test system: purified CNA (calcineurin); assay: In vitro calcineurin phosphatase assay (pNPP substrate); assay type: biochemical
Description: (A) In vitro calcineurin phosphatase assay. Dephosphorylation of the model substrate pNPP by purified calcineurin was measured in presence of various amounts of purified calmodulin (CaM), GST-R5G42 or GST-R7G44 fusion proteins.
The inventors next explored the ability of R5G42 to modulate the enzymatic activity of its target protein. To this end, they first performed an in vitro phosphatase assay using purified CNA and para-nitrophenylphosphate (pNPP) as a substrate.
GST-aptamer fusion proteins were first produced as described above. For this experiment, GST-aptamer fusion proteins were eluted from glutathion sepharose beads using 20 mM reduced L-glutathione (Sigma), and the eluates were dialyzed overnight against a phosphatase buffer (50 mM Tris-HCl pH7.4, 0.1 mM CaCl2). The phosphatase activity of calcineurin was measured using pNPP (Sigma) as substrate, in a final volume of 100 μl. The sample solution contained 50 mM Tris-HCl (pH7.4), 0.1 mM CaCl2, 1 mM NiSO4, 0.15 mg/ml BSA (Sigma), 0.1 μM calcineurin (Upstate). Purified calmodulin (Upstate) and GST-aptamer fusion proteins were added at different concentrations (see figure legend). After a 15 min pre-incubation at 37° C., the reactions were started by adding 4.1 mM pNPP and the mixtures were incubated at 37° C. for 20 min. The nitrophenylate product was measured at 405 nm using an Envision plate reader (Perkin Elmer). The background level that was determined was subtracted using a mixture lacking calcineurin.

[2] = test system: Hela cells; assay: Colony formation assay (cell proliferation assay, crystal violet); assay type: cell-based; details: continuous expression 2 weeks, compared to AptaLib and human thioredoxin
Description: (§1) (B) Colony formation assays. Hela or MCF-7 cells were transfected with plasmids directing the stable expression of the Cdk inhibitor p21, a library of peptide aptamers from pBK1 (AptaLib), Human thioredoxin (HTRX), and peptide aptamers R7G44, R5G42, R5G52. The cells were cultured for two weeks and the colonies were stained with crystal violet.
(§2) The inventors wished to establish the antiproliferative activity of these peptide aptamers using alternative cellular models and a non-retroviral vector to express individually each aptamer. They cloned the aptamer coding genes into a vector bearing a hygromycin selection marker. They also subcloned the pBK1 library into this vector, to create “AptaLib”. They continuously expressed the aptamers, the empty thioredoxin scaffold or AptaLib in Hela and MCF-7 cells for 2 weeks and they stained the cells that grew. […] These aptamers may originate from the remaining background of slowly proliferating cells during the seventh screening iteration, independently of the expressed aptamers. […] This could be due to the fact that the CMTMR assay is more sensitive in detecting modest antiproliferative effects than the colony formation assay or that some peptide aptamers somehow enhance the CMTMR labeling of their host cells.
(§3) To stably express peptide aptamers in mammalian cells, the episomal eukaryotic expression vector pCEP4 that bears a CMV promoter and a hygromycin selection marker (InVitrogen) was used. Aptamer coding sequences were PCR amplified using the oligonucleotides
(§4) that contained a stop codon. The PCR products were digested with NheI and NotI and ligated into NheI/NotI-cut pCEP4 to create pEA-aptamer plasmids. 3×10^5 cells/well were plated in 6-well plates and transfected 24 h after using Jet PEI (Qbiogen), 3.7 μg pEA-aptamer plasmids and 0.3 μg pEGFP-C1 (Clontech) to monitor transfection. Hygromycin (InVitrogen) was added at 200 μg/ml two days later and the cells were cultured for 2 weeks, renewing the medium twice a week. The cells were then rinsed in PBS and were fixed and stained by incubating 30 min in crystal violet (0.05% crystal violet, 20% ethanol, 0.37% formaldehyde). Excess crystal violet was removed by washing with water. In Vitro Phosphatase Assay

[3] = test system: MCF-7 cells; assay: as above; assay type: cell-based; details: MCF-7, continuous expression 2 weeks, compared to AptaLib and human thioredoxin
Description: as §1, §2, §3, §4

[4] = test system: CNA; assay: Yeast two-hybrid assay; assay type: binding, human; details: mating assay, LexA-aptamer fusions
Excerpt: (§5) (A) Yeast two-hybrid mating assay. TB50α yeast were co-transformed with pSH18-34T (bearing a lacZ reporter gene) and plasmids directing the expression of LexA alone or in fusion with peptide aptamers R5G42, R7G44 or R5G52. MB210a yeast were transformed with the selected cDNA library plasmids directing the expression of CNAβ, CNAγ, and NS5ATP2 truncated proteins. To obtain negative controls, MB210a yeast were also transformed with the empty prey plasmid (pJG4-5) and with pJG4-5 directing the expression of Ras and FKBP12 prey proteins. To obtain a positive control, MB210a yeast were transformed with pJG4-5 directing the expression of RG22 peptide aptamer prey fusion protein that interacts with LexA in the context of most LexA fusion proteins.
(§6) The inventors set out to map the R5G42 binding site on CNA. The CNA interacting clones selected in the yeast two-hybrid experiments corresponded to the carboxy-terminal regions of the beta and gamma isoforms, encompassing the calmodulin-binding domain and the auto-inhibitory domain (see FIG. 3B). […] The LexA-R5G52 bait protein may thus not be properly expressed and/or folded in this yeast two-hybrid setting.
The inventors explored the ability of R5G42 mutants having a one amino acid change as compared to R5G42, to bind to CNA beta and gamma C-Terminal fragments (FIG. 3b) and to NS5A-TP2. To this end, they proceeded to yeast-two hybrid assays as in example 3. CNA beta and gamma C-Terminal fragments (FIG. 3b) and NS5A-TP2 were cloned in three different plasmids (pSH18-34, pJK103 and pRB18-40), which differed from each other in the level of sensitivity of their promoter to the bait/prey complex formation, pSH18-34 having the highest sensitivity and pRB18-40 having the lowest.
The 5′ end of RH6 (upper case) matches part of the HA epitope tag and the 5′ ends of RH4, RH3 and RH7 (upper case) match the 5′ extremity of the ADH terminator. The PCR reactions was performed using pCMV-SPORT6-CnAβ as a template. CnAβCter Δ1, Δ2, CaM were constructed by combining oligonucleotides RH6/RH4, RH6/RH3, RH6/RH7, respectively. […]

[5] = test system: peptide aptamer RG22; assay: Yeast two-hybrid mating assay, positive control of interaction; assay type: binding; details: RG22 interacts with LexA in most LexA fusion proteins
Excerpt: as §5, §6
The 5′ end of RH6 (upper case) matches part of the HA epitope tag and the 5′ ends of RH4, RH3 and RH7 (upper case) match the 5′ extremity of the ADH terminator. The PCR reactions was performed using pCMV-SPORT6-CnAβ as a template. […]

[6] = test system: CNA fragments (CNA constructs CNA1-CNA11); assay: Further yeast two-hybrid binding assays (higher sensitivity); set-up: species or system human
Excerpt: FIG. 14. Specificity of aptamers according to the invention for CNA and NS5A-TP2 Interaction matrix between peptide aptamers R5G42, C2, C7, C8, N9, R5G44 and R5G52 with CNA constructs CNA1-CNA8 (A) CNA9-11 (B) and NS5A-TP2 (C). An interaction phenotype between CNA3/CNA 11, which both contain the Calmodulin binding domain (CaM) and the auto-inhibitory domain (Al) but not the CNB binding domain (CNB) and the aptamers R5G42, C2, C7, C8 and N9 is observed in a two-hybrid assay. R5G44 and R5G52 aptamers recognize neither the CNA fragments, nor NS5A-TP2. Only aptamers R5G42 and N9 recognize NS5A-TP2.
The inventors proceeded to further yeast two-hybrid binding assays between peptide aptamers R5G42 (SEQ ID 22), C2 (SEQ ID 23), C7 (SEQ ID 27), C8 (SEQ ID 28), N9 (SEQ ID 33), R5G44 and R5G52 with CNA constructs CNA1-CNA8 (FIG. 14A), CNA9-CNA11 (FIG. 14B) and NS5A-TP2 (SEQ ID 15) (FIG. 14C). The sensitivity of this yeast two-hybrid assay was higher than in the experiment reported above.

[7] = test system: Bad phosphorylation (phosphatase activity of calcineurin in cells); assay: Monitoring of Bad phosphorylation in HeLa cells (western blot); assay type: cell-based; details: transient expression in human cells
Description: (B) Monitoring of BAD phosphorylation in cultured cells. Hela-Tet cells were transfected with plasmids directing the transient expression of BAD, CNAβ, CNB and peptide aptamers R5G42, R5G52 or R7G44. Transfected cells were treated or not with 500 nM FK506. The expression level of BAD and the phosphorylation of serine 112 and 136 residues were monitored by western blot experiments using specific antibodies.
The inventors set out to confirm this finding in human cells. Bad is a key pro-apoptotic protein whose activity is tightly regulated by its phosphorylation status, itself controlled by the balanced activity of several protein kinases and calcineurin. Therefore, the phosphatase activity of calcineurin in cells can be monitored by examining Bad phosphorylation. HeLa cells were transfected with plasmids directing the expression of Bad, CNAβ, CNB and either R5G42, R5G52 or R7G44.
The peptide aptamer coding genes were cloned into pPEAt (a pCEP4-based vector that bears a tetracyclin-inducible promoter and a hygromycin resistance gene), as described above (“cell proliferation assay”).
4×10^5 Hela-tet cells/well were seeded in a 6-well plate 24 h before transfection. […] The lysates were centrifuged to remove cellular debris and the protein content was quantified using the microBCA protein assay kit (Pierce). […]

[8] = test system: purified CNA (bovine brain purified calcineurin); assay: In vitro binding assay (affinity capture on glutathione-sepharose, western blot); details: glutathione-sepharose beads, anti-calcineurin western blot
Excerpt: (C) Affinity capture assay.
The inventors performed two yeast two-hybrid screening experiments against a LexA-R5G42 bait protein, using a human testis and a human fcetal brain cDNA library. They obtained 29 and 42 reconfirmed clones, respectively. […] The inventors thus retained two candidates. The highest occurring clone, from both libraries, corresponded to the NS5A-TP2 protein, recently discovered through a systematic search for genes that are transactivated by the non-structural NS5A protein from hepatitis C virus (22). No biological knowledge is currently available for this protein. The other remaining target candidate was calcineurin A (CNA), for which two different isoforms (beta and gamma) were selected from the testes library (see FIG. 3A). To confirm the interaction between R5G42 and CNA, the inventors performed an in vitro binding assay between recombinant purified GST-aptamer fusion proteins, coupled to a glutathione-sepharose matrix, and purified CNA.
In Vitro Binding Assay pVRV6-aptamer plasmids were first digested with EcoRI and XhoI and the fragments were ligated into EcoRI/XhoI-cut pGEX4T1. GST-aptamer fusions were expressed in a BL-21(DE3) E. coli strain. […] The samples were loaded onto a SDS-PAGE, transferred to nitrocellulose membrane, and calcineurin was detected by western-blotting using an anti-calcineurin pan A antibody (1/1000, Chemicon International). […]

Question: How did the “activation of CNA phosphatase activity” value ([1]; addition of purified calmodulin, pNPP) turn out when calmodulin [CaM, reference compound] was run?
Answer: Its value is “required to activate CNA”.

B1: R5G52: peptide aptamer: variable region IQSPPESPTG in human thioredoxin (SEQ ID 32) (protein)
chain: MVKQIESKTAFQEALDAAGDKLVVVDFSATWCGPIQSPPESPTGGPCKMIKPFFHSLSEKYSNVIFLEVDVDDCQDVASECEVKCMPTFQFFKKGQKVGEFSGANKEKLEATINELV
modifications: left off: large carriers
Question: How did the “inhibition of cell proliferation (colony formation)” value [2] turn out when B1 was run?
Answer: The value was “significantly inhibited the proliferation”.

Question: What about the “inhibition of cell proliferation (colony formation)” value [3] of the same molecule?
Answer: The value was “significantly inhibited the proliferation”.

Question: What about the “yeast two-hybrid interaction phenotype with CNA” value [4] of the same molecule?
Answer: The value was “did not show an interaction phenotype”.

Question: And the “yeast two-hybrid interaction phenotype” value [5]?
Answer: The value was “did not show an interaction phenotype”.

Question: And the “recognition of the CNA fragments” value [6]?
Answer: The value was “recognized neither the CNA fragments”.

Question: What about the Bad phosphorylation levels [7] of the same molecule?
Answer: Its Bad phosphorylation levels is “does not affect Bad phosphorylation levels”.

B2: GST-R5G42: recombinant purified GST-aptamer fusion protein of R5G42 (protein)
chain: B1 chain with I35S, Q36A, S37V, P38T, P39F, E40A, S41V, P42C, T43A, G44L
modifications: left off: a dimerising Fc or GST
Question: For B2, which “capture of purified CNA by GST-aptamer solid phase” value [8] is on record?
Answer: Its value is “readily captured CNA”.

Question: What about the “CNA phosphatase activity in absence of CaM” value ([1]; high concentrations of GST-aptamer, pNPP, 0.1 μM calcineurin) of the same molecule?
Answer: The value was “activated CNA phosphatase activity in absence of CaM, to a level comparable to that observed using CaM”.

Question: And the “effect on CaM-activated CNA phosphatase activity” value ([1]; in presence of CaM (not shown))?
Answer: Its value is “did not result in an inhibition or an exacerbation”.
